Test results reported in a protein production outcome set (Wang et al. 2014).

Assay: label from the status in PepcDB records

Sequence	protein production
MDGLHVSIVSVALFIILFVIFVFLGFYGSRWRRGDLSKLHEWALAGRRLGPYLMWFLLTADLYTAYTFIAVPSLVLASGPVGFFAAFYSAVTPFIALLFMPRLWTIAKNRGYVTAADFIKDRFNSRILAGLVAITGVVAELPYIALQIVGMQVALLILLLGLGVSNITLASDLSLLVAFIILAAFVFTSGLRGAALTAVYKDIIILGTIISIAIYVPLAFGGFSGAFHNAQTLSSQINLALNNVNKPIFYNYLPNTLAARTAYISLAIGSAFALYLYPHAVNASVSSDSKKSLKLSLALQPFYSIILAVIALFGILVYANSKVVNFIAKTHSGAVAVPALIGYSMPDWFVGIALLGIFIGGLVPAAIMAIGAANLLTRNIIKEFKPNMSPSTESALAKWISTAFKFLALALVFATPSTYAIQLQLLGGIIILQTLPSVFLGLYTSKLNGYALVGGWAGGMFSGIYLTLLANHFGPLKTSSFITPLGPMYIGVLSTLINLAIGLIGTAIAYGAGWRPVSNIRAEEIA	failed
LRSRRKPSSRIGRRPSTTQDRISTVGIELFTEQGFDATSVDEVAEASGIARRTLFRYFPSKNAIPWGDFDAHLAEMRAQLAAQPDDIPIVDGLTAALLQFNAFPASEEINHRKRMGLILRVPALQAYSVVMYEGWRNVIAEYVASRLGTSPTDHVPRTVGYLLLGVAMSAYEQWLDDDSLELNELLASGMQSLYDGLSSLGEPDTRT	not failed
MKFKIHSDITYQVMSPTTFIFNVHALRTESQHILDESLIVTPPIEIEEFSYNSGTSRFVRLKATENTTFSMSYTATVDTQYKVIDQRQELETVPVVDLDGDIIPFLFPSRYCQSDKLQKLAYKEFGKIENVYSKVLAITDWIYNNVEYISGSTNSQTSAFDTITERAGVCRDFAHLGIALCRALSIPARYFTGYAFKLNPPDFHACFEAYIGGNWIIFDATRLVPLNGLVKIATGRDAADAAVASIFGNASSTNMHVECASLDTDFTPFWYDKNSLKGLSFQ	not failed
IYGLVQRCVIIQKDDNGFGLTVSGDNPVFVQSVKEDGAAMRAGVQTGDRIIKVNGTLVTHSNHLEVVKLIKSGSYVALTVQGRPPGSPQIPLADSEVEPSVIGHMSPIMTSPHSPGASGNMERITSPVLMGEENNVVHNQK	failed
MAFGSFARSGGSSRFLFTAGRMAQQLTVSIGQASSPGRKPVNQDFYGALIPAEPLLITKGIALALADGISSSDISQVASESAVKSFLTDYYCTSEAWSVKSSAQRVIAATNSWLHAETRRSDYRYDRDKGYVCTLSALVIKGAAAHLFHIGDSRIYRLAGASLEQLTEDHRVRLSAEQSYLGRALGVNPQVEIDYLSVPIGSGDLFVLATDGVYEHVAHRFVVQTLRDHGDDLDAAARAIVGEAFNNGSDDNLTVQVVRIESVPGADSIDLFERVAELPLPPLLEPRAEFDGYRIIRELHGSSRSHIYLASDLATGELVVLKIPSADLRDDPEYRKRFMLEEWAARRIDSPHVLKPCVVQRPRSYLYVTFEYIEGQTLAQWMIDHPRAELETVRGLIEQIAKGLYAFHRKEMVHQDLRPANVLIDRSGTVKIIDFGSVRVAGVAELGPAGGDELLGTVQYMAPEYFAGQGGSALSDQFSLGVIAYQMLTGRLPYGAELARANQALKSRKLRYSAAADHNAKVPVWVDRALQRAVSLDPAKRYPALSEFVHDLRHPRADYLDARPQPLAARNPLLFLQLLSALLALIVVGLLARLHGSI	failed
GYDHKGMGITARGAWESVKRHFRALGRDCQNEDFRCIGVGDMSGDVFGNGMLLSRHSLLVAAFDHRHIFLDPMPDAALSFAERERLFKLPRSSWADYDATLISKGGGIYPRTLKSIQISPQVAEVLGLDKGIKQLSPNVLISAILKAPVDLFWNGGIGTYVKASSETHADVGDRANNALRVNGLELRCKVVGEGGNLGLTQLGRIEAAQRGVLLNTDFIDNSAGVDTSDHEVNIKILLNDVVQAKTLCFDARNALLASMTDDVAQLVLWDNIRQNQALSLMERMSVKRLGSKQHFIRTLERQGLLDRQIEFLPSDAELSARKARGLGL	failed
MNITKAFCLSIALLGASNMQAITNSDFVIQQDNTKINNYQTNRPETSKRLFVSQAVEQQIAHIKQLLTNARLAWMFENCFPNTLDTTVHFDGKDDTFVYTGDIHAMWLRDSGAQVWPYVQLANKDAELKKMLAGVIKRQFKCINIDPYANAFNMNSEGGEWMSDLTDMKPELHERKWEIDSLCYPIRLAYHYWKTTGDASIFSDEWLTAIAKVLKTFKEQQRKEDPKGPYRFQRKTERALDTMTNDGWGNPVKPVGLIASAFRPSDDATTFQFLVPSNFFAVTSLRKAAEILNTVNKKPDLAKECTTLSNEVETALKKYAVYNHPKYGKIYAFEVDGFGNQLLMDDANVPSLIALPYLGDVKVNDPIYQNTRKFVWSEDNPYFFKGTAGEGIGGPHIGYDMIWPMSIMMKAFTSQNDAEIKTCIKMLMDTDAGTGFMHESFHKNDPKNFTRSWFAWQNTLFGELILKLVNEGKVDLLNSIQLEHHHHHH	failed
MTTTFEFLQPRIHGFATCCSSNSLLYSKASRFFNDRCRVYRQNPNRFVSNSITLPLQKKQVTVLRNHERFNLWDGFSRKKSRLVVNCQEDDQNESSSEEEESSQSTPAKSERKREKKEDKVWWSKGKKWQWQPIIQAQGIGVLLLQLSVVMFVMRLLRPGIPLPGSEPRIQTTFVSVPYSEFLSKVNSNQVQKVEVDGVQVLFKLRDDGKWQESETSRLSQSSESLLRTVAPTKRVVYSTTRPGDIKTPYEKMLGNNVEFGSPEKRSGGFFNSALIALFYIAVLAGLIRFPVSFSTSSTGQLRTRKAGGPDGGKVSGGGETITFADVAGVDEAKEELEEIVEFLRNPEKYVRLGARPPRGVLLVGLPGTGKTLLAKAVAGEAEVPFISCSASEFVELYVGMGASRVRDLFARAKKEAPSIIFIDEIDAVAKSRDGKFRMGSNDEREQTLNQLLTEMDGFDSNSAVIVLGATNRADVLDPALRRPGRFDRVVTVETPDKIGRESILRVHVSKKELPLGDDVNLGSIASMTTGFTGADLANLVNEAALLAGRKNKTNVEKIDFIQAVERSIAGIEKKSARLKGNEKAVVARHEAGHAVVGTAVANLLTGQPRVEKLSILPRTGGALGFTYIPPTSEDRYLLFIDELLGRLVTLLGGRAAEEVVYSGRISTGAFDDIRRATDMAYKAVAEYGLNQKIGPVSVATLSGGGIDDSGGSPWGRDQGKLVDLVQKEVTILLQSALDVALSVVRANPDVLEGLGAQLEEKEKVEGEELQKWLSMVVAPEELAVFVEGKQELLLPAQASSS	failed
NIYDSANELSRGLRGLPEYKAVKAAKDAIAADAEASKIFTDYLAFQEEIQKLAQTGQMPDASFQAKMEGFGKQIQGNSLLSEFFTKQQQLAIYLSDIEKIVFEPVSEL	failed
MRKARGIKLIAVFLVAAVVNVVFGFCVLAKAQILKKPAENSYVFDYANLIDSSDEEEMRALAKEIEDKSKAEIVVVTVETLGSYTIEEYANELFRSWEIGDKELNNGVLILVNKENLLLGKKGRIRIEVGYGLEGAITDGKAGRTLDEYAIPAFERNEYSKGIRDTFLAVASEVANEYGLKIDGLSGYGASEDVNENEVTSDGNAENVVDVPFGLGIGAGLIVGFGLFFFIIFLMVIVILYNQPYAGKKYEWTWKNGKWEKKVYVYRYDDLWKNNRSFFDDSDDSDSFGSGGGFGGFGGGSSGGGGASR	failed
MHWTIIGGGIQGTAIAQKLLSSGLTTDLLTIIDPHETFCQRFNSYTNRIEMPYLRSPIVHHVHPQPFHLKQFAKQHQYTNAFYGPYQRPELTMFMNHIAHASKQYQLEDCLVQGLVQTLDKQEDKWHIKLEDGQIITTDCVVIAIGSTNIPFMPDILKDKQNVNHIFEKEHDQVVYDKTDHIVGSGITAAHLALKLLNHDNDKKI	failed
MEELSSVGEQVFAAECILSKRLRKGKLEYLVKWRGWSSKHNSWEPEENILDPRLLLAFQKKEHEKEVQNRKRGKRPRGRPRKLTAMSSCSRRSKLKEPDAPSKSKSSSSSSSSTSSSSSSDEEDDSDLDAKRGPRGRETHPVPQKKAQILVAKPELKDPIRKKRGRKPLPPEQKATRRPVSLAKVLKTARKDLGAPASKLPPPLSAPVAGLAALKAHAKEACGGPSAMATPENLASLMKGMASSPGRGGISWQSSIVHYMNRMTQSQAQAASRLALKAQATNKCGLGLDLKVRTQKGELGMSPPGSKIPKAPSGGAVEQKVGNTGGPPHTHGASRVPAGCPGPQPAPTQELSLQVLDLQSVKNGMPGVGLLARHATATKGVPATNPAPGKGTGSGLIGASGATMPTDTSKSEKLASRAVAPPTPASKRDCVKGSATPSGQESRTAPGEARKAATLPEMSAGEESSSSDSDPDSASPPSTGQNPSVSVQTSQDWKPTRSLIEHVFVTDVTANLITVTVKESPTSVGFFNLRHY	failed
MKKNLFYLFALICSMSLFTACSDDDEAPGNSGVVGEVVGDYKGLMDVYYEPNVEIAKGMQQKITIKKSSDTSIGLELKNFVITVGGAPITIGDLAIDNCPLKVEGDKYSFTGNADLDLVVGKCAVSVEGAINGEDIELIIKVNVNNDLMKVRVEYKGKKMTGNESSEALIKEFKFDSDIIAEQPVINEDKTITFKVAETATDDDLKALKPIITISENATVTPESGVTQDFSGNKVVIYKVTSEDGTTVTEYKVSARKSSDALITSFVFENNPIVAEQPVINEDNTITFKVKASATADDLKALVPTITYSHKATIAPESGVAQDFSDNKKVIYTVTSEDGTVIKEYQVFISGTEDVYDFEKWLPGVEGQEPENTFYEAEGWASSNTGAHFLKGFNLTDSYVIMQTDDSHSGTAAAKIQSIDTKGQDLGIAKAPKVTTGSLFLGKFKTDIFNTLNSTKFGIPCKEKPISLRGWYKYTPGDVYYIVNTKPYKEHCHEAVVDETKVDEFMISVVLYETTAYDEIGWSDCLTGTDEEEKNIYTSSRIAAIGQLIGGAQTDWKKFELPLEWKKQYDTNKKYRMTIACSSSKDGDKFWGAPGSTLIVDDFELIKE	failed
KLLAITSCPNGIAHTYMAAENLQKAADRLGVSIKVETQGGIGVENKLTEEEIREADAIIIAADRSVNKDRFIGKKLLSVGVQDGIRKPEELIQKALNGDIPVY	not failed
MNEELKKSIAASIENTRFDILQMIELGRELIDYPDEIHHGPVVSMGVPKDTLPKWDDIQILTAQLHKKPLIDDAPVDTQLVIGPRAQKPLVLDIPLLVGDMSYGALSKRAKQALSKGADLAGTAICSGEGGILGDELELNQSYMFELGSARNGLKKNSDLSQFSKDFKGKVKAFHFKGGQAAKTGTGGHLPGGKVTEEIAKARQIEVGKDAISPSTFADFHTPRDFADFADQIRDQMGGIPIGFKISANHIEDDMRFALDAGADYIILDGRGGSTGAAPGIFRDHISVPTIAALARARKFLDVAGHEKGAKNSVTLIITGGLRIPSDFIKALALGADGIALANSALQAIGCTGARICYSGDCPAGIATHAQHLVNKIDVDARARDLALFFNGSVHLMKIMTRACGHHSLREFSRDDICTWKAEISRLAGIPYAGVDPSNP	failed
MKAYALVGGPTDLWLHDIKKQLTEAKQNNDLIFGVDRGALFLEELGIIPDVAIGDFDSLQAKDLSRIEKTVKDIRYSNPIKDWTDSEIMVQTVFKDYLADKLIILGASGGRIDHFLINLLMWLNPPINQFAQRVEIIDNHNSIVFFNPGVHIIKKKPDYPYIGFATLSETEDFNISGARYDLNDYSSTYPRVFSSNEFLPNSDYFEISLKKGMIAAIYSKDINRFHNLLEHHHHHH	not failed
MFIGIYNRSVIVTYMGIASAMVGMYLADKHDIRYAILCLVIAGVCDLFDGKIARMCKRTEDEKLFGIQLDSLADVICFSALPISIFYGLGLNKWYHVVIYTAFTLAAITRLGFFNIKVMDSNRDKPVDYYSGLPVTCSAMIFPLFWLLSFCLDRHIFLLIYTIIIAVVAFLFVANIKIKKPKGIAYGVFVVLAVLMSLGIIFIGV	failed
MDRNIDQELVSIIIPTHNRYESLIRAVKSCLHQSYKNIEVIIIDDNYSNVNLRNKIIHQFGYTNHRIKLILSNEDLGATNARNIGIKNSRGKYISFLDDDDEYMPDRILKLMACFKKSRMKNLALVCSYGIIIYPNGTREEEKTDFVGNPLFVQMVHNIAGTSFWLCKKEVLELINGFEKIDSHQDGVVLLKLLVQGYQIDIVREFLVNYYAHSKENGITGVTQKTINADEEYYNYCRKYFNLLSFNERILVTKKYYSLNIKRLLLIGDKCKALKVIKKAREEKIFNEFLF	failed
